Results from US20260273049A1 (ALLIGATOR BIOSCIENCE, published 2026).
Positions count from the first letter of the chain named. Values belong to the binder of their own block, whether it stands above or below them.

Legend:
[1] = target: T1, human CEACAM5 (hCEACAM-5, #4128-CM-050, R&D Systems) (human, UniProt P06731 35-685); experiment: ELISA; antigen coated at 0.5 µg/mL, bsAb titrated, anti-human kappa-HRP, luminescence [3/7) Multi39]
T1 construct: Bought protein; also called Human CEACAM5-His; monomeric human CEACAM5-His
T1 sequence (looked up): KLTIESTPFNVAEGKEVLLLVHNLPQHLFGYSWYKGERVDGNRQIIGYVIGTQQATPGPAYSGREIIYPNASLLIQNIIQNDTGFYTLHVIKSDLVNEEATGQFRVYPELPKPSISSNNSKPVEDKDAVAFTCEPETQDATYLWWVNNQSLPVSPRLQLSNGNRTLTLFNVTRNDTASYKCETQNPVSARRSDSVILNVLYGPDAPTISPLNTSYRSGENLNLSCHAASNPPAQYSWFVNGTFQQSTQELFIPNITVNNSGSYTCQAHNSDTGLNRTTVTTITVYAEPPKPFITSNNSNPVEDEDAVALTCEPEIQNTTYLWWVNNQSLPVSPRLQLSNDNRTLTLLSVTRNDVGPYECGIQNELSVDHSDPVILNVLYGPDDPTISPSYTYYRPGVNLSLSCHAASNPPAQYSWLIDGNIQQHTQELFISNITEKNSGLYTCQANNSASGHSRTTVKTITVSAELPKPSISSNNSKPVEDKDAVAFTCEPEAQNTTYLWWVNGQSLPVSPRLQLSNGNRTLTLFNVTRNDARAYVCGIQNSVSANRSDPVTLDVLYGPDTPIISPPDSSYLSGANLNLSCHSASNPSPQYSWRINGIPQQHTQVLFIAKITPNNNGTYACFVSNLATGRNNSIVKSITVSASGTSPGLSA
Protocol: (§1) 96-well plates were coated with 0.5 μg/mL antigen, hCEACAM-1 (2244-CM-050, R&D Systems), hCEACAM-5 (4128-CM-050, R&D Systems), hCEACAM-6 (3934-CM-050, R&D Systems) or CEACAM-8 (9639-CM-050, R&D Systems) in PBS over night at 4° C. After washing in PBS/0.05% Tween 20 (PBST), the plates were blocked with PBST, 2% BSA for at least 30 minutes at room temperature before a second round of washing. RUBY bsAbs, diluted in PBST, 0.5% BSA, were then added and allowed to bind for at least 1 hour at room temperature. […] Finally, a final round of washing was performed and bound complexes detected using SuperSignal Pico Luminescent as substrate and luminescence signals were measured using Fluostar Optima.

[2] = target: human CD40 expressed on cells (CD40 reporter cells, HEK Blue CD40L cells, B cells, Raji cells) (human, UniProt P25942 21-277); experiment: cell-based or functional assay
[3] = target: T2, human CEACAM1 expressed on CHO cells (human, UniProt P13688 35-526); experiment: flow cytometry on CEACAM1-transfected CHO cells, fluorochrome-conjugated anti-human IgG [1/2) B]
T2 construct: whole, on cells; also called CHO-CEACAM1; CEACAM1 on cells
T2 sequence (looked up): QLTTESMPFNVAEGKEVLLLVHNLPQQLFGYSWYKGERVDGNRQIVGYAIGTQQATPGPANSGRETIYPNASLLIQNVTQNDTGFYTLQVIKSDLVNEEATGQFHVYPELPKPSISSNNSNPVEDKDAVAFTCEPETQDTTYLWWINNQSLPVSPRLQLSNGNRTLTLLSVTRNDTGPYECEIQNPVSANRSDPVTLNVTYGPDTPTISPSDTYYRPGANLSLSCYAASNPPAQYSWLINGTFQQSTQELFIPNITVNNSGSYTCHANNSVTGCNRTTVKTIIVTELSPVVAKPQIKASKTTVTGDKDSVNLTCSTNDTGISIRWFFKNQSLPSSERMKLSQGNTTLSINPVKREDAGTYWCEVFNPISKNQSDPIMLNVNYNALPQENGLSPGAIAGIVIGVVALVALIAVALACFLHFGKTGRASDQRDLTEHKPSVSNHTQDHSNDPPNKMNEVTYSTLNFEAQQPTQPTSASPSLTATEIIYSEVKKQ
Text: The human CEACAM5 and CEACAM1 genes were cloned into pcDNA3.1, and the vector was subsequently stably transfected into CHO cells. […] Binding of the antibodies was detected using fluorochrome-conjugated anti-human IgG and analyzed using flow cytometry.

[4] = target: T3, CEACAM-8 (#9639-CM-050, R&D Systems) (UniProt P31997 35-320, limits assumed); experiment: ELISA; antigen coated at 0.5 µg/mL, bsAb titrated, anti-human kappa-HRP, luminescence [3/7) Multi40]
T3 construct: Bought protein
T3 sequence (looked up): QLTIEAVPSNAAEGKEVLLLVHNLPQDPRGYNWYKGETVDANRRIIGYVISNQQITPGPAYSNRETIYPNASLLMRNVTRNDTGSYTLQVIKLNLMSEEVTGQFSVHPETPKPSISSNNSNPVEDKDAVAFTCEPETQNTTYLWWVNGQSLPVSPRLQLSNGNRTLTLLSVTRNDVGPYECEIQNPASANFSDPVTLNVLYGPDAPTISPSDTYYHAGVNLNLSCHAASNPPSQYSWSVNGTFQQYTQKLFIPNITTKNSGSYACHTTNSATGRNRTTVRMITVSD
Protocol: as §1

[5] = target: T1, human CEACAM5 (hCEACAM-5, #4128-CM-050, …); experiment: dual target ELISA; hCEACAM-5 coated, bsAb titrated, detection with biotinylated hCD40-muIg and streptavidin-HRP, luminescence; signal needs both targets [1/2) B]
Protocol: as §1

[6] = target: T4, human CEACAM5 expressed on cells (CHO-CEACAM5; MKN45, LS174T tumor cells) (human, UniProt P06731 35-685, GPI anchor on the C-terminal residue (685); heavily N-glycosylated); experiment: flow cytometry on LS174T tumor cells (intermediate CEACAM5), fluorochrome-conjugated anti-human IgG [2/3) E]
T4 construct: also called CEACAM5 on cells; CEA expressed on cells
T4 sequence: T1 sequence (looked up)

human CD40 expressed on cells (CD40 reporter cells, HEK Blue CD40L cells, B cells, Raji cells), sequence (P25942 21-277): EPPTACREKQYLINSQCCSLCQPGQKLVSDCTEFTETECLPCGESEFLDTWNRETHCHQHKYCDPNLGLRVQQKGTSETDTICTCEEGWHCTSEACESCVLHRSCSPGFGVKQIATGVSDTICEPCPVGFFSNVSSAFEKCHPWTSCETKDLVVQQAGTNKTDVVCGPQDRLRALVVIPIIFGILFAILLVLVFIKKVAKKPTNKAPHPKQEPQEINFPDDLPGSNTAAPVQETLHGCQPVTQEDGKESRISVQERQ

B1: Multi39 (bispecific antibody)
heavy 1: not shown
light: not shown
heavy 2: EVQLLESGGGLVQPGGSLRLSCAASGFTFYDHAMSWVREAPGKGLEWVSAISGSYGSTGYADSVKGRFTISRDNSKNTLYLQMNSLRAEDTAVYYCARWGGWAGDIDYWGQGTLVTVSSASTKGPSVFPLAPSSKSTSGGTAALGCLVKDYFPEPVTVSWNSGALTSGVHTFPAVLQSSGLYSLTSVVEVPSSSLGTQTYICNVNHKPSNTKVDKKVEPKSC
notes: Optimized RUBY format; copies: 2 + 2 + 2
EC50 (read off the curve) [1]: 1000 to 2000 pM

B2: ffAC_05337 (bispecific antibody, human IgG1, kappa, L234A L235A)
heavy: not shown
light: DIQMTQSPSSLSASVGDRVTITCRASQSISSYLNWYQEKPGKAPKLLIYAASSLQSGVPSRFSGSGSGTDFTLTISSLQPEDFATYYCQQAGNPHTFGQGTKLEIKRTVAAPSVFIFPPSDEQLKSGTASVVCYLNNFYPREAKVQWKVDNALQSGNSQESVTEQDSKDSTYSLWSTLTLSKADYEKHKVYACEVTHQGLSSPVTKSFNRGEC
chain: EVQLLESGGGLVQPGGSLRLSCAASGFTFSTYGMHWVREAPGKGLEWLSYISGGSSYIFYADSVKGRFTISRDNSKNTLYLQMNSLRAEDTAVYYCARILRGGSGMDLWGQGTLVTVSSASTKGPSVFPLAPSSKSTSGGTAALGCLVKDYFPEPVTVSWNSGALTSGVHTFPAVLQSSGLYSLTSVVEVPSSSLGTQTYICNVNHKPSNTKVDKKVEPKSC
EC50 (nM), HEK Blue CD40L SEAP reporter, CHO-CEACAM5 crosslinking, 0 Raji sink cells/well [2]: 0.04 nM
EC50 (nM), HEK Blue CD40L SEAP reporter, CHO-CEACAM5 crosslinking, 10 000 Raji sink cells/well [2]: 0.08 nM
EC50 (nM), HEK Blue CD40L SEAP reporter, CHO-CEACAM5 crosslinking, 30 000 Raji sink cells/well [2]: 0.11 nM
EC50 (nM), HEK Blue CD40L SEAP reporter, CHO-CEACAM5 crosslinking, 90 000 Raji sink cells/well [2]: 0.41 nM

B6: AC_05337 (bispecific antibody)
heavy 1: not shown
light: B2 light
heavy 2: B2 chain with K65R, K76E, T78A, T185S
EC50 (read off the curve) [6]: ~4000 pM

Further lines, results first:

EC50 (nM), HEK Blue CD40L SEAP reporter, CHO-CEACAM5 crosslinking, 0 Raji sink cells/well [2]: 0.03 nM
EC50 (nM), HEK Blue CD40L SEAP reporter, CHO-CEACAM5 crosslinking, 10 000 Raji sink cells/well [2]: 0.06 nM
EC50 (nM), HEK Blue CD40L SEAP reporter, CHO-CEACAM5 crosslinking, 30 000 Raji sink cells/well [2]: 0.13 nM
EC50 (nM), HEK Blue CD40L SEAP reporter, CHO-CEACAM5 crosslinking, 90 000 Raji sink cells/well [2]: 0.36 nM
binding result [3]: no binding (tested: 400 nM)
B3: Multi41 (bispecific antibody)
heavy 1: not shown
light: DIQMTQSPSSLSASVGDRVTITCRASQSISSYLNWYQEKPGKAPKLLIYAASSLQSGVPSRFSGSGSGTDFTLTISSLQPEDFATYYCQQWRSHLFTFGQGTKLEIKRTVAAPSVFIFPPSDEQLKSGTASVVCYLNNFYPREAKVQWKVDNALQSGNSQESVTEQDSKDSTYSLWSTLTLSKADYEKHKVYACEVTHQGLSSPVTKSFNRGEC
heavy 2: B2 chain
notes: as for B1

binding result [4]: no binding (tested: 100 nM)
EC50 (read off the curve) [5]: ~600 pM
B4: Multi40 (bispecific antibody)
heavy 1: not shown
light: DIQMTQSPSSLSASVGDRVTITCRASQSISSYLNWYQEKPGKAPKLLIYAASSLQSGVPSRFSGSGSGTDFTLTISSLQPEDFATYYCQQSSHGPLLTFGQGTKLEIKRTVAAPSVFIFPPSDEQLKSGTASVVCYLNNFYPREAKVQWKVDNALQSGNSQESVTEQDSKDSTYSLWSTLTLSKADYEKHKVYACEVTHQGLSSPVTKSFNRGEC
heavy 2: B2 chain
notes: as for B1

EC50 (nM), HEK Blue CD40L SEAP reporter, CHO-CEACAM5 crosslinking, 0 Raji sink cells/well [2]: 0.04 nM
EC50 (nM), HEK Blue CD40L SEAP reporter, CHO-CEACAM5 crosslinking, 10 000 Raji sink cells/well [2]: 0.06 nM
EC50 (nM), HEK Blue CD40L SEAP reporter, CHO-CEACAM5 crosslinking, 30 000 Raji sink cells/well [2]: 0.11 nM
EC50 (nM), HEK Blue CD40L SEAP reporter, CHO-CEACAM5 crosslinking, 90 000 Raji sink cells/well [2]: 0.36 nM
B5: Multi42 (bispecific antibody, human IgG1, kappa, L234A L235A)
heavy: not shown
light: EIVLTQSPGTLSLSPGERATLSCRASQSVSSSYLAWYQEKPGQAPRLLIYGASSRATGIPDRFSGSGSGTDFTLTISRLEPEDFAVYYCQQYWYPLTFGQGTKLEIKRTVAAPSVFIFPPSDEQLKSGTASVVCYLNNFYPREAKVQWKVDNALQSGNSQESVTEQDSKDSTYSLWSTLTLSKADYEKHKVYACEVTHQGLSSPVTKSFNRGEC
chain: B2 chain
